We go through two proteins from publication PMC2606041 (Structure (London, England : 1993), 2008).

Series [1] concerns the molecule itself. The series is described as follows: SEC.
Series [2] deals with the molecule itself. The series is described as follows: NMR solution structure.

B1: SpoVTN (N-terminal DNA-binding domain of SpoVT, residues 1-55) (domain or fragment, Bacillus subtilis, UniProt P37554 1-55, looked up)
chain: MKATGIVRRIDDLGRVVIPKEIRRTLRIREGDPLEIFVDRDGEVILKKYSPISEL
With B1, in series [1], the “stoichiometry N” value is 2.

B2: AbhN (N-terminal DNA-binding domain of Abh, residues 1-54) (domain or fragment, Bacillus subtilis, UniProt P39758 1-54, looked up)
chain: MKSIGVVRKVDELGRIVMPIELRRALDIAIKDSIEFFVDGDKIILKKYKPHGVC
For the protein B2, in series [2], the binding result is given as “binds”.
